Results: patent US8598081B2, “Specific delivery of agrochemicals” (priority 2010, dated 2013)

Experiment: ELISA-like assay of VHH-coupled microcapsules, unrelated antigen-coated wells
Format: binding
Details: uvitex OB microcapsules
Procedure: Polyurea microcapsules were produced by interfacial polymerization. With the objective to generate functionalized polyurea microcapsules, VHH were coupled to microcapsules containing either the insecticide lambda cyhalothrin or the fluorescent tracer molecule Uvitex OB and a shell with incorporated lysine to surface-expose carboxylic acid residues. Lambda cyhalothrin was dissolved in benzyl benzoate in concentrations between 30% and 66% before encapsulation. Alternatively, a core of 1.5% Uvitex in benzyl benzoate was used for easy fluorescent visualization of microcapsules. Toluene diisocyanate (TDI) and polymethylenepolyphenylene isocyanate (PMPPI) were dissolved in the oil phase in different ratios and concentrations in the oil phase to produce desired shell characteristics. Stirring speed for the emulsion was varied to control droplet size and consequently microcapsule diameter. Microcapsules with approximate diameters of 5 μm, 10 μm, or 50 μm were successfully produced. Bifunctional lysine and trifunctional diethylene triamine (DETA) were used in different ratios and/or added sequentially during encapsulation to on the one hand maximize amounts of carboxylic acids on the microcapsules' surface and on the other hand obtain sufficient strength of capsule shells. Microcapsules were washed with water after production and stored as microcapsule suspensions in water. The microcapsules were washed with 100 mM MES, 500 mM NaCl, pH 6.0 immediately before coupling of VHH using a vacuum-tight filter flask and P 1.6 filter funnel (Duran). Alternatively, glass filter holders with 0.45 μm disposable membrane filters (Millipore) or 0.45 μm 96-well deep-well filtration plates (Millipore) were used. Couplings of VHH to microcapsules were performed using carbodiimide-mediated couplings using a one-step procedure, a two-step procedure without N-hydroxysuccinimide (NHS), or a two-step procedure with NHS. The major difference between one-step coupling and two-step coupling procedures is the occurrence of cross-linking of VHH in one-step coupling procedures. The protocols for the three procedures are largely similar and differ as follows. For one-step couplings VHH were added to washed microcapsules and 1-Ethyl-3-[3-dimethylaminopropyl]carbodiimide Hydrochloride (EDC) (Pierce) was added and coupling reaction was allowed for 2 hours at room temperature. For two-step couplings washed microcapsules were first activated with EDC in the presence or absence of NHS. Excess unreacted EDC (and NHS) were removed by quick sequential washes with ice-cold buffers and VHH were added and allowed to react with activated carboxylic acids on microcapsule shells. For ø 10 μm microcapsules 2-20 μg VHH were coupled per mg microcapsules. […]

B1: Microcapsules containing uvitex OB VHH 3E6: polyurea microcapsules containing the fluorescent tracer Uvitex OB, coupled with (monovalent) VHH 3E6 (conjugate)
VHH: QVQLQESGGGLVQPGGTLSLSCAASGFNVRWYGMGWFRQAPGKEREGVACISALQETTAYADSVKGRFTLSRDNPKNTLSLQMNNLQPEDTGVYYCATTDCDDSSRMTYTSYLGQGTQVTVSS
modifications: left off: small tags and cut ends
notes: polyurea microcapsules containing the fluorescent tracer Uvitex OB, coupled with (monovalent) VHH 3E6
Area of bound microcapsules (no coating (second series, with unrelated antigen rows), surface coverage 100%): 68.181 | Area of bound microcapsules (unrelated antigen, surface coverage 4%): 23.525 | Area of bound microcapsules (unrelated antigen, surface coverage 20%): 47.906 | Area of bound microcapsules (unrelated antigen, surface coverage 100%): 84.508
